In patent US7256012B2, “Fluorogenic protease substrates based on dye-dimerization” (3M Innovative Properties Company, priority 1997, dated 2007):

Biological target: T1, trypsin (Bos taurus, UniProt P00760)
T1 construct: gene PRSS1
T1 sequence (P00760 24-246): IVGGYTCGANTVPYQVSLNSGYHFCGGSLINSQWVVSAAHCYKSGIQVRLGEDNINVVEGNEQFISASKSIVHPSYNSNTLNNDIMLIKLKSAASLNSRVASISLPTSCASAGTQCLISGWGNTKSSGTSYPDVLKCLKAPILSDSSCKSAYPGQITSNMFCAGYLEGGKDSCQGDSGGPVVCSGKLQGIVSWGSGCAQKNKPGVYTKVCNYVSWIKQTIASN
Test: Hydrolysis of fluorogenic protease substrate by purified enzyme (trypsin), fluorescence intensity
Type: biochemical
Conditions: for Average ratio w/ trypsin to w/o trypsin: average over emission 570-585 nm
Method: Enzymatic hydrolysis of the substrate from Example 1 was carried out in 50 mM carbonate buffer, pH 8.9 at room temperature. Fluorescence intensity of the solution prior to treatment with trypsin and after treatment with trypsin is shown in Table 1, for excitation wavelengths of 360 nm, 522 nm, 530 nm, and 553 nm, respectively. […] This is a characteristic of dye dimerization or stacking, as described above. […] Both the fluorescence and absorption results provided convincing evidence that ground-state interactions existed between dye molecules in the conjugate and became diminished after enzymatic cleavage.

[1] = Excitation 530 nm, emission 570 nm
[2] = Excitation 530 nm, emission 571 nm
[3] = Excitation 530 nm, emission 572 nm
[4] = Excitation 530 nm, emission 573 nm
[5] = Excitation 530 nm, emission 574 nm
[6] = Excitation 530 nm, emission 575 nm
[7] = Excitation 530 nm, emission 576 nm
[8] = Excitation 530 nm, emission 577 nm
[9] = Excitation 530 nm, emission 578 nm
[10] = Excitation 530 nm, emission 579 nm
[11] = Excitation 530 nm, emission 580 nm
[12] = Excitation 530 nm, emission 581 nm
[13] = Excitation 530 nm, emission 582 nm
[14] = Excitation 530 nm, emission 583 nm
[15] = Excitation 530 nm, emission 584 nm
[16] = Excitation 530 nm, emission 585 nm
[17] = Excitation 553 nm, emission 570 nm
[18] = Excitation 553 nm, emission 571 nm
[19] = Excitation 553 nm, emission 572 nm
[20] = Excitation 553 nm, emission 573 nm
[21] = Excitation 553 nm, emission 574 nm
[22] = Excitation 553 nm, emission 575 nm
[23] = Excitation 553 nm, emission 576 nm
[24] = Excitation 553 nm, emission 577 nm
[25] = Excitation 553 nm, emission 578 nm
[26] = Excitation 553 nm, emission 579 nm
[27] = Excitation 553 nm, emission 580 nm
[28] = Excitation 553 nm, emission 581 nm
[29] = Excitation 553 nm, emission 582 nm
[30] = Excitation 553 nm, emission 583 nm
[31] = Excitation 553 nm, emission 584 nm
[32] = Excitation 553 nm, emission 585 nm

Average ratio w/ trypsin to w/o trypsin (Excitation 530 nm): 27 | Fluorescence intensity w/ trypsin [1]: 46615 | Fluorescence intensity w/o trypsin [1]: 1687 | ratio w/ trypsin to w/o trypsin [1]: 28 | Fluorescence intensity w/ trypsin [2]: 48314 | Fluorescence intensity w/o trypsin [2]: 1718 | ratio w/ trypsin to w/o trypsin [2]: 28 | Fluorescence intensity w/ trypsin [3]: 49955 | Fluorescence intensity w/o trypsin [3]: 1819 | ratio w/ trypsin to w/o trypsin [3]: 27 | Fluorescence intensity w/ trypsin [4]: 50871 | Fluorescence intensity w/o trypsin [4]: 1844 | ratio w/ trypsin to w/o trypsin [4]: 28 | Fluorescence intensity w/ trypsin [5]: 52163 | Fluorescence intensity w/o trypsin [5]: 1904 | ratio w/ trypsin to w/o trypsin [5]: 27 | Fluorescence intensity w/ trypsin [6]: 52681 | Fluorescence intensity w/o trypsin [6]: 1895 | ratio w/ trypsin to w/o trypsin [6]: 28 | Fluorescence intensity w/ trypsin [7]: 52855 | Fluorescence intensity w/o trypsin [7]: 1968 | ratio w/ trypsin to w/o trypsin [7]: 27 | Fluorescence intensity w/ trypsin [8]: 53752 | Fluorescence intensity w/o trypsin [8]: 1939 | ratio w/ trypsin to w/o trypsin [8]: 28 | Fluorescence intensity w/ trypsin [9]: 53611 | Fluorescence intensity w/o trypsin [9]: 1970 | ratio w/ trypsin to w/o trypsin [9]: 27 | Fluorescence intensity w/ trypsin [10]: 53534 | Fluorescence intensity w/o trypsin [10]: 2026 | ratio w/ trypsin to w/o trypsin [10]: 26 | Fluorescence intensity w/ trypsin [11]: 53414 | Fluorescence intensity w/o trypsin [11]: 1973 | ratio w/ trypsin to w/o trypsin [11]: 27 | Fluorescence intensity w/ trypsin [12]: 53190 | Fluorescence intensity w/o trypsin [12]: 1985 | ratio w/ trypsin to w/o trypsin [12]: 27 | Fluorescence intensity w/ trypsin [13]: 52569 | Fluorescence intensity w/o trypsin [13]: 1948 | ratio w/ trypsin to w/o trypsin [13]: 27 | Fluorescence intensity w/ trypsin [14]: 51719 | Fluorescence intensity w/o trypsin [14]: 1926 | ratio w/ trypsin to w/o trypsin [14]: 27 | Fluorescence intensity w/ trypsin [15]: 50705 | Fluorescence intensity w/o trypsin [15]: 1905 | ratio w/ trypsin to w/o trypsin [15]: 27 | Fluorescence intensity w/ trypsin [16]: 49629 | Fluorescence intensity w/o trypsin [16]: 1820 | ratio w/ trypsin to w/o trypsin [16]: 27 | Average ratio w/ trypsin to w/o trypsin (Excitation 553 nm): 25 | Fluorescence intensity w/ trypsin [17]: 82385 | Fluorescence intensity w/o trypsin [17]: 3301 | ratio w/ trypsin to w/o trypsin [17]: 25 | Fluorescence intensity w/ trypsin [18]: 85120 | Fluorescence intensity w/o trypsin [18]: 3402 | ratio w/ trypsin to w/o trypsin [18]: 25 | Fluorescence intensity w/ trypsin [19]: 87845 | Fluorescence intensity w/o trypsin [19]: 3457 | ratio w/ trypsin to w/o trypsin [19]: 25 | Fluorescence intensity w/ trypsin [20]: 89719 | Fluorescence intensity w/o trypsin [20]: 3658 | ratio w/ trypsin to w/o trypsin [20]: 25 | Fluorescence intensity w/ trypsin [21]: 91555 | Fluorescence intensity w/o trypsin [21]: 3649 | ratio w/ trypsin to w/o trypsin [21]: 25 | Fluorescence intensity w/ trypsin [22]: 93001 | Fluorescence intensity w/o trypsin [22]: 3802 | ratio w/ trypsin to w/o trypsin [22]: 24 | Fluorescence intensity w/ trypsin [23]: 94046 | Fluorescence intensity w/o trypsin [23]: 3827 | ratio w/ trypsin to w/o trypsin [23]: 25 | Fluorescence intensity w/ trypsin [24]: 94816 | Fluorescence intensity w/o trypsin [24]: 3816 | ratio w/ trypsin to w/o trypsin [24]: 25 | Fluorescence intensity w/ trypsin [25]: 94516 | Fluorescence intensity w/o trypsin [25]: 3806 | ratio w/ trypsin to w/o trypsin [25]: 25 | Fluorescence intensity w/ trypsin [26]: 94662 | Fluorescence intensity w/o trypsin [26]: 3962 | ratio w/ trypsin to w/o trypsin [26]: 24 | Fluorescence intensity w/ trypsin [27]: 93715 | Fluorescence intensity w/o trypsin [27]: 3695 | ratio w/ trypsin to w/o trypsin [27]: 25 | Fluorescence intensity w/ trypsin [28]: 93189 | Fluorescence intensity w/o trypsin [28]: 3825 | ratio w/ trypsin to w/o trypsin [28]: 24 | Fluorescence intensity w/ trypsin [29]: 92281 | Fluorescence intensity w/o trypsin [29]: 3736 | ratio w/ trypsin to w/o trypsin [29]: 25 | Fluorescence intensity w/ trypsin [30]: 91125 | Fluorescence intensity w/o trypsin [30]: 3724 | ratio w/ trypsin to w/o trypsin [30]: 24 | Fluorescence intensity w/ trypsin [31]: 89415 | Fluorescence intensity w/o trypsin [31]: 3593 | ratio w/ trypsin to w/o trypsin [31]: 25 | Fluorescence intensity w/ trypsin [32]: 87910 | Fluorescence intensity w/o trypsin [32]: 3449 | ratio w/ trypsin to w/o trypsin [32]: 25 | fluorescence intensity of the cleaved substrate solution relative to the intact substrate solution (maximum) (excitation 360-553 nm, emission wavelengths from 570 to 585 nm): ≤ 29 times
Substance: TMR-Val-Pro-Arg-Gly-Lys-TMR (XPRGX; not fully specified; TMR dye at both ends) [T-VPRGK-T]
